Data taken from patent EP3381935A1 (Tigo GmbH, dated 2018).
Numbering of substitutions follows the chain as printed. Numbers in names are those of the source.

T1: hIFN-γ receptor on human amniotic WISH cells (human, UniProt P15260 18-489)
T1 sequence (looked up): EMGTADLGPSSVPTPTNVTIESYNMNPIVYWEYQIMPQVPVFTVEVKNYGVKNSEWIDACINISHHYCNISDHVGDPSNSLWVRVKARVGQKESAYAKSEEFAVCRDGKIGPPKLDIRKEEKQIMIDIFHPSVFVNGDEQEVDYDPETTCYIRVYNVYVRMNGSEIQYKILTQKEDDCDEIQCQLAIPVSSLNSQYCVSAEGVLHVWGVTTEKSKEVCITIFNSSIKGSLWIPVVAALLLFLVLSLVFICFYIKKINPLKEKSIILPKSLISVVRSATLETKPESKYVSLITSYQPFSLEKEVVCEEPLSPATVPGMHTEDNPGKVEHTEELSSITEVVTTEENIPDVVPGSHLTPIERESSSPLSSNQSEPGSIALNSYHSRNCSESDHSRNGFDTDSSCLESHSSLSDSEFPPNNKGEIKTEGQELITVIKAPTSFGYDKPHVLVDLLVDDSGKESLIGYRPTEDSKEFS

T2: recombinant hIFN-γ receptor (the extracellular part of the IFNGR1) (human, UniProt P15260 18-245)
T2 construct: extracellular domain; In solution for ITC; also called soluble (extracellular) part of the hIFN-γ receptor IFNGR1; interferon-gamma receptor
T2 sequence (looked up): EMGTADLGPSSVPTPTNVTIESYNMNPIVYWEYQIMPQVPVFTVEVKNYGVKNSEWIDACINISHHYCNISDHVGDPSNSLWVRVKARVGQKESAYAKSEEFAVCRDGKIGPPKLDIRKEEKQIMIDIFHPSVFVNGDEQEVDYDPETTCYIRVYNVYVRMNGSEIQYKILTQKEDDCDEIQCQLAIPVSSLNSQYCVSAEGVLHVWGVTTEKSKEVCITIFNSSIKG

B1: K88Q (138 aa) (ligand, human, UniProt P01579 24-161, looked up)
chain: QDPYVKEAENLKKYFNAGHSDVADNGTLFLGILKNWKEESDRKIMQSQIVSFYFKLFKNFKDDQSIQKSVETIKEDMNVKFFNSNKKQRDDFEKLTNYSVTDLNVQRKAIHELIQVMAELSPAAKTGKRKRSQMLFRG
notes: range 1-138; also called Control 3: K88Q(138 aa); Control 2: K88Q
B2: anti-gamma mutant protein K88Q_D41N (138 aa) (ligand)
chain: B1 chain with D41N
B3: anti-gamma mutant protein K88Q_T27Y (138 aa) (ligand)
chain: B1 chain with T27Y
notes: Expressed in E. coli as a HIS-SUMO fusion and the tag was cleaved off; Positions count on the mature 143 aa hIFN-γ
B4: reference hIFN-γ (143 aa) (ligand, human, UniProt P01579 24-161, looked up)
chain: B1 chain with Q88K
notes: mature; also called standard hIFN-γ; wild type hIFN-γ

Experiments:
[1] = target: T1, hIFN-γ receptor on human amniotic WISH …; test: cell-based or functional assay
[2] = target: T2, recombinant hIFN-γ receptor (the …); test: ITC, IFNGR1 in the cell titrated with ligand, 20°C

Binder	Competitive ability % [1]	Kd [2]
B1	25%	18.9 nM
B2	30%	
B3	35%	28.2 nM
B4		136 nM
